In the supplement of paper PMC9170038:

System: MS2 coat protein
Test: apparent KD of MS2 coat protein; designed switch direction (-1 OFF switch, 1 ON switch): -1; higher = weaker reporter binding
Summary of the method: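 RNA switches sharing common flanks were transcribed by stalled E. coli RNA polymerase on Illumina chips. A doubling series of SNAP-549-labelled MS2 coat protein, from 0.7 or 1.5 nM to 3 µM, was applied in Tris-HCl pH 7.5 buffer with KCl, MgCl2, BSA, DTT, tRNA and Tween-20. Each step lasted 0.8–1.5 h at the bottom of the series and 10–20 min at the top. Normalised cluster fluorescence was curve-fitted, giving apparent KD as the per-design median over clusters.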

[1] = Eterna round: R95, input ligand: FMN 200 uM
[2] = Eterna round: R95, input ligand: microRNA oligo, concentration not stated
[3] = Eterna round: R95, input ligand: none
[4] = input ligand: microRNA oligo, concentration not stated

For “CUUCACCCACCAGAGCUCACCCACAUACCAGCUCUGGUGACAUGAGGAUCACCCAUGUUUUUUGCCCGUCUUAUCUU [Intibima] (puzzle: Sensor v3, turn-off variant 2)”, the “apparent KD of MS2 coat protein” value [1] was 41.3 nM, the “apparent KD of MS2 coat protein” value [2] was 189 nM and the “apparent KD of MS2 coat protein” value [3] was 46.8 nM.

For “CUUCACCCACCAGAGCUCACCCACAUACCUACUCAGGUGACAUGAGGAUCACCCAUGUUUUUUGCCCGUCUUAUCUU [Vexebedi] (Eterna round: R96, puzzle: Sensor v3, turn-off variant 2)”, the “apparent KD of MS2 coat protein” value (input ligand: FMN 200 uM) was 34.4 nM, the “apparent KD of MS2 coat protein” value [4] was 174 nM and the “apparent KD of MS2 coat protein” value (input ligand: none) was 37.5 nM.

With “CUUCACCCACCAGAGCUCACCCACAUACCUACUCAGGUGACAUGAGGAUCACCCAUGUUUUUUGCCCGUCUUAUCUU [Vexebedi] (puzzle: Sensor v3, turn-off variant 2)” the “apparent KD of MS2 coat protein” value [1] was 28.3 nM, the “apparent KD of MS2 coat protein” value [2] was 216 nM and the “apparent KD of MS2 coat protein” value [3] was 30.4 nM.

“CUUCGUAUAGAGGAUAUAGGAUACGAAAGUGUCCUAGAAGGCUGUACAUGAGGAUCACCCAUGUACUUCAGAUC [Exclusion 6 - B - 14:e] (puzzle: Exclusion 6)” was tested, and the “apparent KD of MS2 coat protein” value [2] was 11.7 nM.

With “CUUGAGUGACAAGCUUUUUGCUCGUCUGUUAUUGAUGCUACAUGAGGAUCACCCAUGUUUAAGAUGUGUGAGGAUGG [JR_SV3TOV2_Sub054] (puzzle: Sensor v3, turn-off variant 2)” the “apparent KD of MS2 coat protein” value [1] was 36.7 nM, the “apparent KD of MS2 coat protein” value [2] was 48.9 nM and the “apparent KD of MS2 coat protein” value [3] was 35.6 nM.

For “CUUGUUUAUGUAGGAUAUGCCUGGCGUGCCUUUGCAGAAGGACAUGAGGAUCACCCAUGUAACAUGAGGCUAACCCUUGUCGCC [salish99_ExNG1_r04_118] (Eterna round: R96, puzzle: Exclusion NG 1)”, the “apparent KD of MS2 coat protein” value (input ligand: FMN 200 uM) was 86.7 nM, the “apparent KD of MS2 coat protein” value [4] was 65.7 nM and the “apparent KD of MS2 coat protein” value (input ligand: none) was 96 nM.

For “CUUUACAUGCUAAGAUCCUACAUGAGGAUCACCCAUGUGGUCCGGUGACGUGAGUCACCGGACUUAGCUCGUCUUGU [salish99_S_TOV1_R5_097] (Eterna round: R97, puzzle: Sensor, turn-off variant 1)”, the “apparent KD of MS2 coat protein” value (input ligand: FMN 200 uM) was 83.2 nM and the “apparent KD of MS2 coat protein” value (input ligand: none) was 119 nM.

“CUUUAGCAGGUAGGAUAUACGAAGUGUCGGCGAGUAGAAGGACCUGCGAUCCACUUGAGGAUCACCCAAGUUCGCAGGAGAACA [Mutated MS2 EX1.10] (Eterna round: R96, puzzle: Exclusion NG 1)” was tested, and the “apparent KD of MS2 coat protein” value (input ligand: FMN 200 uM) was 103 nM, the “apparent KD of MS2 coat protein” value [4] was 35.6 nM and the “apparent KD of MS2 coat protein” value (input ligand: none) was 50.8 nM.

For “CUUUCGUGAGGAUAUGUGGCUUCGAUCGUGAGAUCGAGGCAACAGAAGGCACAUGAGGAUCACCCAUGUUCCUC [salish99_ex4_r4_207] (Eterna round: R97, puzzle: Exclusion 4)”, the “apparent KD of MS2 coat protein” value (input ligand: FMN 200 uM) was 546 nM and the “apparent KD of MS2 coat protein” value (input ligand: none) was 40.5 nM.

In the case of “CUUUGAUGAGGAUAUCGAGGUUAGUACAUGAGGAUCACCCAUGUUAUCCAGGUGUCGGUUCGAGAAGGUAUUGGAC [LRO-Ex5-17] (puzzle: Exclusion 5)”, the “apparent KD of MS2 coat protein” value [2] was 15.6 nM.

With “CUUUUGGGAGGAUAUUAGUAGUAAAUAAAUAAAAUUACUACUGAGAAGGCACAUGAGGAUCACCCAUGUUCCUC [salish99_ex4_r3_071] (puzzle: Exclusion 4)” the “apparent KD of MS2 coat protein” value [2] was 19.7 nM.

For “CUUUUGUGAGGAUAUCAGUAGUAAAAAAAUAAAAUUAUUACUGAGAAGGCACAUGAGGAUCACCCAUGUUCCUC [salish99_ex4_r3_028] (puzzle: Exclusion 4)”, the “apparent KD of MS2 coat protein” value [2] was 36.3 nM.

“CUUUUGUGAGGAUAUCAGUAGUAAAAAAAUUAAAUUACUACUGAGAAGGCACAUGAGGAUCACCCAUGUUCCUC [salish99_ex4_r3_022] (puzzle: Exclusion 4)” was tested, and the “apparent KD of MS2 coat protein” value [2] was 36.4 nM.

“CUUUUGUGAGGAUAUCAGUAGUAAAUAAAUAAAAUUACUACUGAGAAGGCACAUGAGGAUCACCCAUGUUCCUC [salish99_ex4_r3_015] (puzzle: Exclusion 4)” was tested, and the “apparent KD of MS2 coat protein” value [2] was 37.4 nM.

In the case of “CUUUUGUGAGGAUAUCUGGCUUCGAUCGUGAGAUCGAGGCUAGAGAAGGCACAUGAGGAUCACCCAUGUUCCUU [jl-ex4-4.05 salish99 mod] (Eterna round: R97, puzzle: Exclusion 4)”, the “apparent KD of MS2 coat protein” value (input ligand: FMN 200 uM) was 66.1 nM and the “apparent KD of MS2 coat protein” value (input ligand: none) was 19.9 nM.

In the case of “CUUUUGUGAGGAUAUUAGUAGUAAAAAAAUAAAAUUACUACUGAGAAGGCACAUGAGGAUCACCCAUGUUCCUC [salish99_ex4_r3_036] (puzzle: Exclusion 4)”, the “apparent KD of MS2 coat protein” value [2] was 33.2 nM.

With “CUUUUGUGAGGAUAUUAGUAGUAAAAAAAUAAAAUUACUACUGAGAAGGCACAUGAGGAUCACCCAUGUUCCUU [salish99_ex4_r3_039] (puzzle: Exclusion 4)” the “apparent KD of MS2 coat protein” value [2] was 14.1 nM.

In the case of “CUUUUGUGAGGAUAUUAGUAGUAAAUAAAUAAUAUUACUACUGAGAAGGCACAUGAGGAUCACCCAUGUUCCUC [salish99_ex4_r3_059] (puzzle: Exclusion 4)”, the “apparent KD of MS2 coat protein” value [2] was 38.8 nM.

For “CUUUUGUGAGGAUAUUGGUAGUAAAUAAAUAAAAUUAUUACCGAGAAGGUACAUGAGGAUCACCCAUGUUCCUC [Salish 062 v18] (Eterna round: R97, puzzle: Exclusion 4)”, the “apparent KD of MS2 coat protein” value (input ligand: FMN 200 uM) was 32.1 nM and the “apparent KD of MS2 coat protein” value (input ligand: none) was 18.2 nM.

For “GAAAAACAUGAGGAUCACCCAUGUAAGGAUAUGCUGAAAAACACGGAAAAAACGUGCAGCAGAAGGUACAAAAG [Mat - Exclusion 1 - Eli mod - D91] (Eterna round: R96, puzzle: Exclusion 1)”, the “apparent KD of MS2 coat protein” value (input ligand: FMN 200 uM) was 107 nM, the “apparent KD of MS2 coat protein” value [4] was 44.8 nM and the “apparent KD of MS2 coat protein” value (input ligand: none) was 71.1 nM.

“GAAAACGCAGGAUAUUAAUACUUAUACAUGAGGAUCACCCAUGUUUAUUGGGAUUAAGAAUAAGAAGGGCGAUGAA [EX5 #1] (Eterna round: R97, puzzle: Exclusion 5)” was tested, and the “apparent KD of MS2 coat protein” value (input ligand: FMN 200 uM) was 30.8 nM and the “apparent KD of MS2 coat protein” value (input ligand: none) was 24 nM.

In the case of “GAAAACGGAGAGGAUAUUUGAGAUCAAAGCUCCAAAGAAGGCUCCACAUGAGGAUCACCCAUGUGGUCUUCAAG [Mat - Exclusion 6 - JL Mod - D14] (Eterna round: R97, puzzle: Exclusion 6)”, the “apparent KD of MS2 coat protein” value (input ligand: FMN 200 uM) was 86.7 nM and the “apparent KD of MS2 coat protein” value (input ligand: none) was 17 nM.

With “GAAAAGCGAGGAUAUACUUGCAGUGUACCUCGGGUGAUCUCACUUGAGGAUCACCCAAGUAGAAGGCGCGAGGG [Quletibe] (Eterna round: R97, puzzle: Exclusion 2)” the “apparent KD of MS2 coat protein” value (input ligand: FMN 200 uM) was 4.5 nM and the “apparent KD of MS2 coat protein” value (input ligand: none) was 45.2 nM.

For “GAAAAGGUAGGAUAUACGAAAAAAAAGGGUAGAAAAAAAACACAUGAGGAUCACCCAUGUAGAAGGACCAGAAG [salish99_ex2_r3_038] (puzzle: Exclusion 2)”, the “apparent KD of MS2 coat protein” value [1] was 72.8 nM, the “apparent KD of MS2 coat protein” value [2] was 27.9 nM and the “apparent KD of MS2 coat protein” value [3] was 17.3 nM.

In the case of “GAAAAGGUAGGAUAUACGAAAAAAAAGGGUAGAAAAAUAACACAUGAGGAUCACCCAUGUAGAAGGACCAAAAG [salish99_ex2_r3_074] (puzzle: Exclusion 2)”, the “apparent KD of MS2 coat protein” value [1] was 111 nM, the “apparent KD of MS2 coat protein” value [2] was 23 nM and the “apparent KD of MS2 coat protein” value [3] was 29 nM.

“GAAAAGGUAGGAUAUACGAAAAAAAAGGGUAGAAAGAAAACACAUGAGGAUCACCCAUGUAGAAGGACCAAAAG [salish99_ex2_r3_017] (puzzle: Exclusion 2)” was tested, and the “apparent KD of MS2 coat protein” value [1] was 66.1 nM, the “apparent KD of MS2 coat protein” value [2] was 27.3 nM and the “apparent KD of MS2 coat protein” value [3] was 20.7 nM.

In the case of “GAAAAGUGAGGAUAUCGACAUCUCGACAUGAGGAUCACCCAUGUUGUAGGUCGUGUCGAGCGAGAAGGCACAAUAA [EX5 B.9] (Eterna round: R97, puzzle: Exclusion 5)”, the “apparent KD of MS2 coat protein” value (input ligand: FMN 200 uM) was 48.2 nM and the “apparent KD of MS2 coat protein” value (input ligand: none) was 15 nM.

With “GAAAGAGUUCAGGAUAUCAGAGUCCAGCGACACUGAGAAGGGAAAACAUGAGGAUCACCCAUGUGGUCCUAAGC [Eternabot (L2) Solution 80] (Eterna round: R97, puzzle: Exclusion 6)” the “apparent KD of MS2 coat protein” value (input ligand: FMN 200 uM) was 348 nM and the “apparent KD of MS2 coat protein” value (input ligand: none) was 105 nM.

For “GAACCGCGAGGAUAUACAGUCGAGUCUAUUACGUGUCUCGGACUUGAGGAUCACCCAAGUAGAAGGCGUCUCAG [salish99_ex2_r4_635] (Eterna round: R97, puzzle: Exclusion 2)”, the “apparent KD of MS2 coat protein” value (input ligand: FMN 200 uM) was 54.5 nM and the “apparent KD of MS2 coat protein” value (input ligand: none) was 56.2 nM.

With “GAACUGAGGCAAAGCUUUAGUCGUACAUGAGGAUCACCCAUGUAGGAUAUGGUAGGCUUUGCUUACCAGAAGGACAGAGUGAUC [Mat - Exclusion NG 3 - Mod of JL - D59] (Eterna round: R96, puzzle: Exclusion NG 3)” the “apparent KD of MS2 coat protein” value [4] was 76.3 nM.

For “GAAGAAGAGAGAAUAGAAAACAUGAGGAUCACCCAUGUGAGAAGAUGAGGGUGUAAUAGGCUUUUUGCUCGUCUUAU (puzzle: Sensor v3, turn-off variant 1)”, the “apparent KD of MS2 coat protein” value [1] was 42.7 nM, the “apparent KD of MS2 coat protein” value [2] was 94.4 nM and the “apparent KD of MS2 coat protein” value [3] was 56 nM.

For “GAAGAGACAGGAUAUACAUGAGGAUCACCCAUGUGAGGAGGUUGGAGGCGGAGGAGGUGUAGAAGGGUCAAAGA [JR_Exclu3_Sub021] (puzzle: Exclusion 3)”, the “apparent KD of MS2 coat protein” value [1] was 41.6 nM, the “apparent KD of MS2 coat protein” value [2] was 29.7 nM and the “apparent KD of MS2 coat protein” value [3] was 38.8 nM.

For “GAAGAGACAGGAUAUACAUGAGGAUCACCCAUGUGAGUAAGGUAGAGGCGGAGGAGAUGUAGAAGGGUCAAAGA [JR_Exclu3_Sub016] (puzzle: Exclusion 3)”, the “apparent KD of MS2 coat protein” value [1] was 49.9 nM, the “apparent KD of MS2 coat protein” value [2] was 35.6 nM and the “apparent KD of MS2 coat protein” value [3] was 41.5 nM.

“GAAGAGACAGGAUAUACAUGAGGAUCACCCAUGUGAGUAUGUUAGAGGCGGAGGAGAUGUAGAAGGGUCAAAGA [JR_Exclu3_Sub017] (puzzle: Exclusion 3)” was tested, and the “apparent KD of MS2 coat protein” value [1] was 39.9 nM, the “apparent KD of MS2 coat protein” value [2] was 19.6 nM and the “apparent KD of MS2 coat protein” value [3] was 31.6 nM.

For “GAAGCACAUGAGGAUCACCCAUGUGAGGAUAUCCGUCUGGUCCGGCCGGACCAGUACCGGAGAAGGCGCGUAAA [Excls1-Ia] (puzzle: Exclusion 1)”, the “apparent KD of MS2 coat protein” value [2] was 40.1 nM.

With “GAAGUCGACUAGGAUAUUACAGGCUCAUGCCGUUGAGAAGGAGUGACAUGAGGAUCACCCAUGUCCUCAAGCGC [Eternabot (Original) Solution 48] (Eterna round: R97, puzzle: Exclusion 6)” the “apparent KD of MS2 coat protein” value (input ligand: FMN 200 uM) was 20.3 nM and the “apparent KD of MS2 coat protein” value (input ligand: none) was 16.2 nM.
